Assay results: patent US20240158497A1 (published 2024)

T1: human gp130 expressed endogenously on IMR-32/Stat3-luc cells (human, UniProt P40189 23-918)
T1 construct: Endogenous gp130 of the human neuroblastoma line IMR-32
T1 sequence: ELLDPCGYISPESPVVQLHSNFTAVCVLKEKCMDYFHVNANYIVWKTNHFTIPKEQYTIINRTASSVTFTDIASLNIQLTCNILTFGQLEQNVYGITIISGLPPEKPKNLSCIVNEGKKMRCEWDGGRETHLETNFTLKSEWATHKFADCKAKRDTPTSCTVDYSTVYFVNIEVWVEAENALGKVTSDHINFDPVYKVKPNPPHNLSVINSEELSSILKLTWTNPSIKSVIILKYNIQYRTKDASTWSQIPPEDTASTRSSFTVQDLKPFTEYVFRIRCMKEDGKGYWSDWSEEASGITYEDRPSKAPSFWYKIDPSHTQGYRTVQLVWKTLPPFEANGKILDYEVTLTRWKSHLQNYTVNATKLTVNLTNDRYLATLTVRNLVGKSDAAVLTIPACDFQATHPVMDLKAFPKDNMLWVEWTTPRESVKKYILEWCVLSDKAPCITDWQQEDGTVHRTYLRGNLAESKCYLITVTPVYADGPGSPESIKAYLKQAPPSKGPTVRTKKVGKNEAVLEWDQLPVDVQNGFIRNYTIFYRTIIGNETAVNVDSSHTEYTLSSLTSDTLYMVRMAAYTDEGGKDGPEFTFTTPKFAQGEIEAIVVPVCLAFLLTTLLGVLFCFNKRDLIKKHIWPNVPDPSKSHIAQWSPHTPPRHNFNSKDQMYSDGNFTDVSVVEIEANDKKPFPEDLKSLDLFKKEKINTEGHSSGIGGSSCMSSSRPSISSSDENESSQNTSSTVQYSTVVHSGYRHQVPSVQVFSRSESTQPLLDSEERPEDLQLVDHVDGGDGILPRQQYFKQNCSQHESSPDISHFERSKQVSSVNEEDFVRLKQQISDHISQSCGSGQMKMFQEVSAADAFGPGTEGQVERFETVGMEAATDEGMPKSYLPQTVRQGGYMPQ

T2: full length (FL) human gp130 over-expressed on HEK293/Stat3-luc/gp130-2X Sort cells (human, UniProt P40189 23-918)
T2 sequence: T1 sequence

B1: MAb16665 (antibody, V domains shown)
VH: QVQLVESGGGVVQPGRSLRLACAASGFTFRSYGMHWVRQAPGKGLEWVAVIWYDGSNKYYTDSVKGRFTISRDNSKNTLYLQMNSLRAEDTAMYYCAIDKWATVTTYLFDYWGQGTLVTVSS
VL: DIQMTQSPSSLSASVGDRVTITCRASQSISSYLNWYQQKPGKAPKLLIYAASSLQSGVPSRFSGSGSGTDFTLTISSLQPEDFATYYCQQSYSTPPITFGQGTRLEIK
notes: hIgG4 isotype control used
B2: MAb16614 (antibody, V domains shown)
VH: QVQLVESGGGVVQPGGSLRLSCAASGFTFSTYDIHWVRQAPGKGLEWVAVISFDGSNRNYGDSVKGRFTISRDNSDNTLFLEMNNLRFEDTAVYYCAKEGYGVDFQHWGQGTLVTVSS
VL: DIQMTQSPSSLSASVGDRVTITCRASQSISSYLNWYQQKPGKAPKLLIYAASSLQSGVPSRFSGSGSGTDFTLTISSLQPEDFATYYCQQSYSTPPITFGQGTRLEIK
notes: hIgG4 isotype control used
B3: MAb16676 (antibody, V domains shown)
VH: QVQLVQSGAEVMKPGASVKVSCRASGYTFSSYDINWVRQAPGQGLEWMGWISTATGNTNYPQKVQGRVTMTTDTSTNTAYMELRSLRSDDTAVYYCTREGNSKGWLDPWGQGTLVTVSS
VL: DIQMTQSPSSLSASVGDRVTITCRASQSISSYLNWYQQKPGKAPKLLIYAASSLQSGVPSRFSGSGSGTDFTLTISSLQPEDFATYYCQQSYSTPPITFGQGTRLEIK
notes: hIgG4 isotype control used
B4: MAb16664 (antibody, V domains shown)
VH: QVQLVQSGTEVKKPGSSVKVSCKASGGTFSTYPINWVRQAPGQGLEWMGGIIPIFGTASYAQKFQGRVAITTDESTSTAYMELNSLRSEDTAVYYCARERPNWGSNDYWGQGTLVTVSS
VL: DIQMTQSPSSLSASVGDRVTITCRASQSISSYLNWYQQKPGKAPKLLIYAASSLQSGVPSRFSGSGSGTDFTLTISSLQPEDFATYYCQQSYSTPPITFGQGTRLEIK
notes: hIgG4 isotype control used
B5: MAb16669 (antibody, V domains shown)
VH: EVQLVESGGGLVQPGGSLRLSCAASGFTFSSYAMNWVRQAPGKGLEWVSAISGSGDSTYYTDSVKGRFTISRDNSKNTLYLQMNTLRAEDTAVYYCAKEEIVMLVGATPGWFDPWGQGTLVTVSS
VL: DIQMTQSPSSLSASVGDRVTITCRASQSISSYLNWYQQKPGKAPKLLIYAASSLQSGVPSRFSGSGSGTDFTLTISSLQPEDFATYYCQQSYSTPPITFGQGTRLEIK
notes: hIgG4 isotype control used
B6: MAb16683 (antibody, V domains shown)
VH: QVQLVESGGGLVKPGGSLRLSCAASGFTFSDYYMTWIRQTPGKGLDWVSYISSSGTNKYNADSVKGRFTISRDNAKNSLYLQMNSLRAEDTAVYYCVRDPPWGMDVWGQGTTVTVSS
VL: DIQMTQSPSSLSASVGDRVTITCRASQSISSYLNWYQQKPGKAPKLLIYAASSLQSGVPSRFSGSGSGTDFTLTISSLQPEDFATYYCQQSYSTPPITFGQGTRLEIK
notes: hIgG4 isotype control used

target: T3, human GP130 delta D1 with C-terminal myc-myc hexahistidine tag (human, UniProt P40189 124-619); assay: Luminex, antigen captured on anti-myc beads
T3 construct: used as CHO supernatant; also called human GP130 delta D1-MMH; GP130 Delta D1 extracellular domain
Method: (§1) Aliquots of microspheres with immobilized anti-myc monoclonal antibodies, prepared as described above, were added individually to 1 mL of the each of these protein supernatants and to 500 uL of purified GP130 protein. The microspheres were gently mixed, incubated for two hours at 25° C., washed twice with 1 mL of DBPS, centrifuged to remove the supernatant and finally resuspended in 1 mL of DPBS buffer. Forty eight μL of anti-myc IgG coupled microspheres from individual reactions with full length human GP130 and with each of the human GP130 domain proteins were withdrawn and mixed together in 3.6 mL of PBS+20 mg/mL BSA+0.05% sodium azide (blocking buffer).
(§2) From this mixed pool, 75 μL of microspheres were plated per well on a 96 well filter plate (Millipore, Cat. No: MSBVN1250) and mixed with 25 μL of individual anti-human GP130 monoclonal antibodies (0.5 or 5 μg/mL), incubated for two hours at 25° C. and then washed twice with 200 μL of DPBS with 0.05% Tween 20 (washing buffer). To detect and quantify the amounts of bound anti-GP130 antibody levels to individual microspheres, either 100 μL of 2.5 μg/mL R-Phycoerythrin conjugated goat F(ab′)2 anti-human kappa (Southern Biotech, Cat #2063-09) in blocking buffer, was added and incubated for 30 minutes at 25° C. After 30 minutes, the samples were washed twice with 200 μL of washing buffer and resuspended in 150 μL of wash buffer. The Median Fluorescence intensity (MFI) of the microspheres was measured in a Luminex Analyzer.

T3 sequence (P40189 other isoform, or with tags, fused parts or gaps mutant limits assumed): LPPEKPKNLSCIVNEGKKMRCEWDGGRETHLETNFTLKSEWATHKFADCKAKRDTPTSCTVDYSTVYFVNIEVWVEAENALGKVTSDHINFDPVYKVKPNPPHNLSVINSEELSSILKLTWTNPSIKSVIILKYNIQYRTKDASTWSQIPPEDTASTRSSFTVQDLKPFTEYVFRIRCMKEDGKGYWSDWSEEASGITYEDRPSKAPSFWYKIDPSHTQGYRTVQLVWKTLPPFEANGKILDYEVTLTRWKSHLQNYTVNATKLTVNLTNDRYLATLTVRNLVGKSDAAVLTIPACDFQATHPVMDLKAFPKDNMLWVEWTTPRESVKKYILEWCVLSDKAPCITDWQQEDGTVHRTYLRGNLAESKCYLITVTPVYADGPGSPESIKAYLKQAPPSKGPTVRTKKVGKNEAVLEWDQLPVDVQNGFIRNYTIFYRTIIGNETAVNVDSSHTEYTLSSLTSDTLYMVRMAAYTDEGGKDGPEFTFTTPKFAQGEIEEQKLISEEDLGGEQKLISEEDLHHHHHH

| Luminex MFI signal [MFI] | Binder |
| --- | --- |
| 119 | B1 |
| 2900 | B2 |
| 364 | B3 |
| 442 | B4 |
| 12600 | B5 |
| 12000 | B6 |

target: T4, human GP130 delta D1-D3 with C-terminal myc-myc hexahistidine tag (human, UniProt P40189 329-619); assay: Luminex, antigen captured on anti-myc beads
T4 construct: used as CHO supernatant; also called human GP130 delta D1-D3-MMH; GP130 Delta D1-D3 extracellular domain
Method: as §1, §2

T4 sequence (P40189 other isoform, or with tags, fused parts or gaps mutant limits assumed): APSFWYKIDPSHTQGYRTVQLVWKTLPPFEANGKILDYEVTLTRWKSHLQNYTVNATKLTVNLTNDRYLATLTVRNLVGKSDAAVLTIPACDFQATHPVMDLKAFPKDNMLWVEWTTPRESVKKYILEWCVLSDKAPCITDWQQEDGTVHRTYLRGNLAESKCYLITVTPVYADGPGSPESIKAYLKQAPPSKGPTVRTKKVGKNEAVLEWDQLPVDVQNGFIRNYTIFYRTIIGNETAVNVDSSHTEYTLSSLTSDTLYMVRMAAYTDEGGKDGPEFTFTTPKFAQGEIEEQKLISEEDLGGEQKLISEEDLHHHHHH

| Luminex MFI signal [MFI] | Binder |
| --- | --- |
| 116 | B1 |
| 56 | B2 |
| 686 | B3 |
| 419 | B4 |
| 15100 | B5 |
| 20900 | B6 |

target: T5, human GP130 full length extracellular domain with C-terminal myc-myc-hexahistidine tag (human, UniProt P40189 23-619); assay: Luminex, antigen captured on anti-myc beads
T5 construct: Monomeric; also called human GP130-MMH; hGP130-mmH
Method: as §1, §2

| Luminex MFI signal [MFI] | Binder |
| --- | --- |
| 16300 | B1 |
| 18700 | B2 |
| 18100 | B3 |
| 19300 | B4 |
| 17600 | B5 |
| 15200 | B6 |

target: T1, human gp130 expressed endogenously on …; assay: FACS, 10 nM Ab, IMR-32/Stat3-luc cells, no hGP130.mmh
Description: (§3) In order to assess cell binding by anti-GP130 antibodies of the invention two cell lines were generated. One cell line generated was HEK293 cells stably over-expressing full length (FL) human gp130 (amino acids 1-918 of accession #P40189 with leucine at position 2 changed to valine, a natural variant) along with a luciferase reporter (Stat3-luciferase, Stat3-luc, SA Bioscience, #CLS-6028L). The cells were sorted twice using flow cytometry for high expression of gp130. It is known hereafter as HEK293/Stat3-luc/gp130-2 X Sort. IMR-32 cells (human Neuroblastoma, ATCC), were also evaluated for cell binding as these cells express gp130 endogenously and were used for bioassays. The cells used for binding were generated to stably express a luciferase reporter (Stat3-luciferase, Stat3-luc, SA Bioscience, #CLS-6028L), and are referred to hereafter as IMR-32/STAT3-Luc cells.
(§4) For the FACS analysis, 10 nM of the antibodies were used to stain 0.5×10⁶ cells/well of each cell type at 4° C. in PBS (without calcium and magnesium) containing 2% FBS for 30 minutes. IMR-32/STAT3-luc cells were incubated with 1 mg/mL mouse IgG for 30 minutes at 4° C. to block Fc receptors prior to adding the antibodies. To test whether the anti-gp130 antibody binding is specific for gp130 on the IMR-32 cells, antibodies were added to IMR-32/Stat3-luc cells with or without being pre-bound to 1000 nM of recombinant protein of the ecto-domain of human gp130 fused to myc-myc-his tag (hgp130.mmh) for 30 minutes at 25° C. […] Cells were fixed using BD CytoFix™ (Becton Dickinson, #554655) and analyzed on an IQue® (Intellicyt®) Flow Cytometer. Unstained and secondary antibody alone controls were also tested for all cell lines. The results were analyzed using ForeCyt® (IntelliCyt®) software to determine the geometric means of fluorescence for viable cells.

| MFI - Normalized to Unstained Control [ratio] | Binder |
| --- | --- |
| 5 | B1 |
| 7 | B2 |
| 9 | B3 |
| 7 | B4 |
| 6 | B5 |
| 9 | B6 |

target: T1, human gp130 expressed endogenously on …; assay: FACS, 10 nM Ab pre-bound to 1 uM hGP130.mmh, IMR-32/Stat3-luc cells
Description: as §3, §4

| MFI - Normalized to Unstained Control [ratio] | Binder |
| --- | --- |
| 6 | B1 |
| 6 | B2 |
| 8 | B3 |
| 8 | B4 |
| 5 | B5 |
| 7 | B6 |

target: T2, full length (FL) human gp130 …; assay: FACS, 10 nM Ab, HEK293/Stat3-luc/gp130-2X Sort cells
Description: as §3, §4

| MFI - Normalized to Unstained Control [ratio] | Binder |
| --- | --- |
| 55 | B1 |
| 94 | B2 |
| 74 | B3 |
| 45 | B4 |
| 53 | B5 |
| 75 | B6 |
